Measured values reported in patent publication US20110104713A1, “PRODUCTS AND PROCESSES FOR MODULATING PEPTIDE-PEPTIDE BINDING DOMAIN INTERACTIONS” (priority 2002, published 2011).

Tests used:
[1] = molecular target: T1, Plk-1 PBD (residues 326-603) (Homo sapiens, UniProt P53350); assay: Isothermal titration calorimetry of peptides with Plk-1 PBD; assay type: binding; conditions: ITC; no detectable binding for a Plk1 PBD concentration of at least 150 μM
T1 construct: sample cell containing 15 μM Plk-1 PBD (residues 326-603); GST (N, cleaved yes); made in house; host or cells: E. coli BL21
Procedure: For deletion mapping of the PBD, C-terminal fragments of Plk-1 were generated by PCR and cloned into the EcoRI and XhoI sites of pcDNA3.1 (Invitrogen). For production of recombinant PBD as a GST fusion in bacteria, the 326-603 fragment of Plk-1 was ligated into the EcoRI and XhoI sites of pGEX-4T (Pharmacia), transformed into BL21, and induced in late log-phase cells at 37° C. for 3.5 hours in the presence of 0.4 mM IPTG. For measurements of peptide binding affinity by ITC, GST-Plk-1 (326-603) was isolated from bacterial lysates using glutathione agarose, cleaved from GST using thrombin (10 U/mL), and purified by anion exchange chromatography (Q Sepharose HP, Pharmacia).
Peptides were synthesized by solid phase technique with two C-terminal lysines to enhance solubility, purified by reverse phase HPLC following deprotection, and confirmed by MALDI-TOF 9 Matrix-assisted laser desorption/ionisation-time of flight mass spectrometry. Some peptides contained an additional tyrosine residue to facilitate concentration determination by optical absorbance. calorimetry measurements were performed using a VP-ITC microcalorimeter (MicroCal Inc., Studio City, Calif.). Experiments involved 10 μL injections of peptide solutions (150 μM-180 μM) into a sample cell containing 15 μM Plk-1 PBD (residues 326-603) in 50 mM Tris/HCl (pH 8.1), 200 mM NaCl, 2 mM TCEP. Thirty injections were performed with a spacing of 240 s and a reference power of 25 μCal/s. Binding isotherms were plotted and analyzed using Origin Software (MicroCal Inc. Studio City, Calif.).
Peptides were synthesized by solid phase technique with two C-terminal lysines to enhance solubility. Some peptides contained an additional tyrosine residue to facilitate concentration determination by optical absorbance. Isothermal titration calorimetry was performed using a VP-ITC microcalorimeter (MicroCal Inc. Studio City, Calif.) by titration of 15-40 μM solutions of PBD proteins with 30×10 μl injections of […] peptide in a starting volume of 1.4-2.0 ml. Binding isotherms were plotted and analyzed using Origin Software (MicroCal Inc. Studio City, Calif.). Binding of in vitro translated Plk1 PBD (wild type and mutants) to bead-immobilized pTP and TP peptide libraries was performed as described previously (Elia et al., Science 299:1228-1231, 2003). pTP and TP indicate the peptide libraries biotin-Z-Gly-Z-Gly-Gly-Ala-X-X-B-X-pThr-Pro-X-X-X-X-Ala-Lys-Lys-Lys SEQ ID NO: 30 biotin-Z-Gly-Z-Gly-Gly-Ala-X-X-B-X-Thr-Pro-X-X-X-X-Ala-Lys-Lys-Lys SEQ ID NO: 31, respectively, where pThr is phosphothreonine, Z is aminohexanoic acid, X denotes all amino acids except Cys, and B is a biased mixture of the amino acids P, L, I, V, F, M, W.

[2] = molecular target: T2, GST-Plk-1 PBD (residues 326-603) interaction with mitotic phosphoproteins (Homo sapiens, UniProt P53350); assay: Peptide competition of GST-Plk-1 PBD pull-down of MPM-2 mitotic phosphoproteins from HeLa lysates; assay type: binding; conditions: 320 μM peptide, 45 minutes at 4° C., nocodazole-arrested HeLa lysates
T2 construct: GST-Plk-1 (residues 326-603) was immobilized on glutathionine beads; made in house; host or cells: E. coli BL21
Procedure: HeLa cells were arrested in interphase or G2/M by treatment with aphidicolin (5 μg/mL) or nocodazole (50 ng/mL), respectively, for 16 hours. Cells were lysed in 25 mM Tris/HCl (pH 7.5) containing 125 mM NaCl, 0.5% NP-40, 5 mM EDTA, 2 mM DTT, 4 μg/mL pepstatin, 4 μg/mL aprotinin, 4 μg/mL leupeptin, 1 mM Na3VO4, 50 mM NaF, and […] microcystin, and 150 μgs of lysate incubated with 10 μL of glutathione agarose beads containing 2-5 μg of GST-Plk-1 (residues 326-603), GST-Pin1, or GST for 30 minutes at 4° C. Beads were washed four times with lysis buffer. Precipitated proteins were eluted in sample buffer and detected by blotting with monoclonal MPM-2 (Upstate Biotechnology, Inc.) or polyclonal anti-Cdc25C (Santa Cruz Biotechnology, Santa Cruz, Calif.). For peptide competition experiments, GST-Plk-1 (residues 326-603) was immobilized on glutathionine beads and preincubated with 320 μM of PoloBoxtide-optimal, −8T, or −7V for 45 minutes at 4° C. For binding experiments involving mutant cdc25C, HeLa cells were transfected with wild-type and mutated versions of HA-tagged Cdc25C in pECE using Superfect (Qiagen, Valencia, Calif.). Nocodazole (50 ng/mL) was added seventeen hours after transfection and cells incubated for an additional 14 hours to arrest them in G2/M. Point mutations of Cdc25C were constructed using the QuickChange site-directed mutagenesis system (Stratagene) and verified by DNA sequencing.

T2 sequence (P53350 326-603): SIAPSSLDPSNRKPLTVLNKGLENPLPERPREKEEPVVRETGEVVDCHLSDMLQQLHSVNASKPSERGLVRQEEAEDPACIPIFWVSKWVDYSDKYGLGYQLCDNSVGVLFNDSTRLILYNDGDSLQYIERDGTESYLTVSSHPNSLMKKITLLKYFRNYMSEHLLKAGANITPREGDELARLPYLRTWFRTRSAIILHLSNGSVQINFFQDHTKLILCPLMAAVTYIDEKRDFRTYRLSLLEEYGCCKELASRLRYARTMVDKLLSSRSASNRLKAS
T1 sequence (P53350 326-603): as above

peptide binding to Plk-1 PBD by ITC (in words) [1]: complete loss of binding
effect of peptide pre-incubation on GST-Plk-1 PBD binding of MPM-2 epitopes [2]: not
effect of peptide pre-incubation on GST-Plk-1 PBD binding of MPM-2 epitopes ([2]; listed as 8T): had no effect
Substance: MAGPMQ-S-T-P-LNGAKK (MAGPMQSTPLNGAKK) [PoloBoxtide-8T]
